Test results reported in US20170175137A1.

Molecular target: PD-L1 on FEMX melanoma cells (UniProt Q9NZQ7)
Assay: cell-based or functional assay

UniProt Q9NZQ7, sequence (Q9NZQ7 19-290 limits assumed): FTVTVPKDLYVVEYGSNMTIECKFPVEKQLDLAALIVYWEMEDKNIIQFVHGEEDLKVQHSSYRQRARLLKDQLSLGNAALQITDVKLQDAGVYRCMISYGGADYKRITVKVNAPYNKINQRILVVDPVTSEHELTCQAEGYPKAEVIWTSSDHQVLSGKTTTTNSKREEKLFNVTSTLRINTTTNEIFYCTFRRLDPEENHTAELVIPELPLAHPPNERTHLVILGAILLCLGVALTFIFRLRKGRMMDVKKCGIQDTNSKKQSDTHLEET

B1: blocking anti-PD-L1 antibody (Biolegend clone 29E.2A3) (antibody, from another filing, V domains shown)
VH: EVQLQQSGPELVKPGASVKMSCKASGYTFTSYVMHWVKQKPGQGLEWIGYVNPFNDGTKYNEMFKGKATLTSDKSSSTAYMELSSLTSEDSAVYYCARQAWGYPWGQGTLVTVSA
VL: DIVLTQSPASLAVSLGQRATISCRATESVEYYGTSLVQWYQQKPGQPPKLLIYAASSVDSGVPARFSGSGSGTDFSLTIHPVEEDDIAMYFCQQSRRVPYTFGGGTKLEIK
fraction of CD3+CD8+ TIL making IFN-gamma in a 12-hour intracellular cytokine release (ICS) assay, 1520 TIL co-cultured with FEMX tumor cells, antibody at 10 µg/mL: 37.3%
